In patent publication CN116724049A (UNIV KOELN; PHILIPPS UNIV T MARBURG, dated 2023):

Target: SARS-CoV-2的刺突(S)蛋白的受体结合结构域(RBD) (SARS-CoV-2, UniProt P0DTC2 319-541)

Binder	Kd
MnC2t1p1_A3 (antibody, V domains shown) VH: EVQLVESGGGLVQPGGSLRLSCAASGFTVSSNYMSWVRQAPGRGLEWVSVIYSGGSTFYADSVKGRFTISRDNSKNTLYLQMNSLRPEDTAVYYCATGARFGESPFDYWGQGTLVTVSS VL: DIQMTQSPSSVSASVGDRVTITCRASQGISSWLAWYQQKPGKAPKLLIYAASSLQSGVPSRFSGSGSGTDFTLTISSLQPEDFATYYCQQANSFPGTFGQGTKVEIK	0.7 nM
FnC1t2p1_D4 (antibody, V domains shown) VH: QVQLVQSGSELKKPGASVKVSCKASGYTFLRFAMNWLRQAPGQGLEWMGWIDTNTGTPTYAQGFTGRFVFSLDTSVSTAYLQISSLKAEDTAVYYCARSLRGANLVPWGQGTLVTVSS VL: DIQMTQSPSSLSASVGDRVTITCQASQDVSNYLNWYQQQPGKAPKLLIYDAFNLETGVPSRFSGSGSGTDFTFTISSLQPEDIATYYCQQYDNLPLTFGGGTKVEIK	0.2 nM
FnC1t2p1_G5 (antibody, V domains shown) VH: QVQLVQSGSELKKPGASVKVSCKASGYTFLRFAMNWLRQAPGQGLEWMGWIDTNTGTPTYAQGFTGRFVFSLDTSVSTAYLQISSLKAEDTAVYYCARSLRGANLVPWGQGTLVTVSS VL: DIQMTQSPSSLSASVGDRVTITCQASQDVSNYLNWYQQQPGKAPKLLIYDAFNLETGVPSRFSGSGSGTDFTFTISSLQPEDIATYYCQQYDNLPLTFGGGTKVEIK	0.1 nM
MnC4t2p1_B3 (antibody, V domains shown) VH: EVQLVESGGHLVQPGRSLRLSCAASGFTFDDYAMHWVRQVPGKGLEWVSGISWNGGILDYADSVKGRFTISRDNAKNSLYLHMRSLRTDDTALYYCAKDLRRQDYYADWYFDLWGRGTLVTVSS VL: DIQMIQSPSSVSASVGDRVTITCRASQGISSWLAWYQQKPGKAPKLLIYAASTLLSAVPSRFSGSGSGTDFTLTISSLQPEDFATYYCQQGNSFPFTFGPGTIVDV	0.09 nM
MnC2t2p1_C11 (antibody, V domains shown) VH: QVQLVQSGAEVKKPGSSVKVSCKASGGTFSRYTIIWVRQAPGQGLEWMGRIIPILDIANYAQKFQGRVTITADKSTSTAYMELSSLRSEDTAVYYCAREGGLDYFGSRNSGWTYTWFDPWGQGTLVTVSS VL: DIQMTQSPSSLSASVGDRVTITCRASQNISSYLNWYQQKPGKAPNLLIYAASSLQSGVPPRFSGSGSGTDFTLTISSLQPEDFATYYCQQSYSTLYSFGQGTKLEIK	0.02 nM
MnC4t2p2_A4 (antibody, V domains shown) VH: QVQLVQSGSELKKPGASVKISCKASGYIFINYAMNWVRQAPGQGLEWMGWINTNTGNPTYAQDFTGRFVFSLDTSLSTAYLQISSLEAEDTAVYYCAKIGSRNSLGVWGQGTLVTVSA VL: EIVLTQSPGTLSLSPGERATLSCRASHSVDRSYLAWYQQKPGLAPRLLIYGASSRATGIPDRFSGSGSGTDFTLTISRLEPEDFALYYCQHFGTSSVTFGRGTRLEIK	14 nM
